In test [1] the target is D5 IgG.
Test [2] addresses D5 IgG. The source holds these as a separate data set.
Test [3] has as its target gp120 of the HIV-1 HXB2 envelope (HIV-1 strain HXB2) (UniProt P04578). Kind of test: cell-based or functional assay.
Test [4] deals with IQN17-2Pro. Kind of test: SPR (Biacore).
Test [5] concerns the target IZN17 (HIV) (UniProt P04578). Kind of test: SPR (Biacore). (In general: Surface plasmon resonance follows binding to a sensor surface in real time, without labels.)
Test [6] concerns the target IZN17-G572D (HIV) (UniProt P04578). Kind of test: SPR (Biacore).
For test [7], the target named is IZN17-L565M (HIV) (UniProt P04578). Kind of test: SPR (Biacore).
Test [8] has as its target IZN17-Q567R (HIV) (UniProt P04578). The experiment in a line: SPR (Biacore).

Where two headings read alike, the source gives them in different places.

Sequence of D5 IgG (VH, as listed by the source, chain 1 of 2): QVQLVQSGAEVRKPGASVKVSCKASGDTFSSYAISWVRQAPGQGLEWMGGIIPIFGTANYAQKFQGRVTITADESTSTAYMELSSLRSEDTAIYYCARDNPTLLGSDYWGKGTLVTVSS
Sequence of D5 IgG (VL, as listed by the source, chain 2 of 2): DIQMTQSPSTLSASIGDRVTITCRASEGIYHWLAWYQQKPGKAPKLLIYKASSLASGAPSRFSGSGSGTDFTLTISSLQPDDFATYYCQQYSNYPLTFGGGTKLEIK
Sequence of D5 IgG (antibody) (VH): as the sequence (VH, as listed by the source, chain 1 of 2) above
Sequence of D5 IgG (antibody) (VL): as the sequence (VL, as listed by the source, chain 2 of 2) above

For the substance “IZN17 (from UniProt P04578 565-581) (peptide)”, the results for the IC50 (read off the curve) in test [1] and in test [2] were 7 nM and 2 nM, respectively.

Take X5 scFv: in test [3], the IC50, single cycle infectivity assay against HIV-HXB2 turned out to be 30 nM.

In test [1], “IZN17-Q567R (from UniProt P04578 565-581) (peptide)” yielded an IC50 (read off the curve) of 10 nM.

On to D5 IgG (antibody), for which the Kd in test [4] turned out to be 240 nM; in test [5] it was 0.1 nM; in test [6], 550 nM; in test [7], 0.3 nM; in test [8], 1.5 nM. The koff in test [4] amounted to 0.0022 s⁻¹; in test [5] it was 0.00059 s⁻¹; in test [6], 0.003 s⁻¹; in test [7], 0.00089 s⁻¹; in test [8] it was 0.0012 s⁻¹. The association rate constant (kon) in test [4] is 9000 M⁻¹ s⁻¹; in test [5], 6.1e+06 M⁻¹ s⁻¹; in test [6], 5500 M⁻¹ s⁻¹; in test [7], 3e+06 M⁻¹ s⁻¹; in test [8], 800000 M⁻¹ s⁻¹.

Substance “IZN17-L565M (from UniProt P04578 565-581) (peptide)” showed an IC50 (read off the curve) in test [1] of 10 nM.

The substance “IZN17 V570A (from UniProt P04578 565-581) (peptide)” gave an IC50 (read off the curve) in test [2] of 7 nM.

A word on the Kd: it is the concentration at which binding is half-saturated. A lower Kd goes with tighter binding. As usually defined, the koff is the first-order rate constant of dissociation. One may read the kon as the rate constant with which the complex forms.
